According to the nanobody polyreactivity screen of Harvey et al. (2022):

Assay: yeast display, Sf9 membrane polyspecificity reagent, FACS + sequencing; frameworks hold sequencing errors
How it was run: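 Nanobodies from a synthetic yeast display library (Saccharomyces cerevisiae BJ5465), induced 36–48 hours with galactose, were stained 1 hour at 4 °C with 10% biotinylated, detergent-solubilized Sf9 membrane reagent, enriched on streptavidin microbeads, then FACS-sorted. Anti-HA (expression) and streptavidin (reagent binding) fluorescence set low and high (top ~1%) gates. Polyreactivity labels come from the gate of origin. Genes were colony-PCR amplified, MiSeq 2 × 250 sequenced and filtered by CDR length.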

Sequence	polyreactivity (PSR sort gate)
QVQLVESGGGLVQAGGSLRLSCAASGIIFREYAMGWYRQAPGKERELVAAISKSGGSTYYADSVKGRFTISRDNAKNTVYLQMNSLKPEDTAVYYCAARLGTFSIPMYYWGQGTQVTVSS	high polyreactivity
QVQLVESGGGLVQAGGSLRLSCAASGIIFRGYAMGRNRHAPGKERELVARISTSGGSTYYADSVKGRFTISRDNAKNTVYLQMNSLKPEDTAVYYCAATRSFLTSWYYRSTSTRDYWGQGTQVTVSS	high polyreactivity
QVQLVESGGGLVQAGGSLRLSCAASGIIFRGYAMGWDRQAPGKERELVARISITGGRTYYADSVKGRFTLSRDNAKNTVYLQMNSLKPEDTAVYYCAAGKYVRTVRYDYWGQGPQVTVSS	high polyreactivity
QVQLVESGGGLVQAGGSLRLSCAASGIIFRGYAMGWYRQAPGKERELVAAITYSGDSTYYADSVKGRFTSSRDNAKNTVYLQMNSLKPEESAVYYCNADVVDGGLAYDYWGQGTQVSVSS	low polyreactivity
QVQLVESGGGLVQAGGSLRLSCAASGIIFRKYAMGWYRQAPGKERELVAAISWRGGSTYYADSVKGRFTISRDNAKNTVYLQMNSLKPEDTAVYYCAAVAQITGYDYWGQGTQVTVSS	high polyreactivity
QVQLVESGGGLVQAGGSLRLSCAASGIIFRLNAMGWYRQAPGKERELVAAIRRRGGSTYYADSVKGRFTISRDKAKNTVYLQMNSLKPEDTAVYYCAKDPHGSDFGYWGQGTQVTVSS	low polyreactivity
QVQLVESGGGLVQAGGSLRLSCAASGIIFRLYAMGWYRQAPGKERELVAAISYRGGSTYYADSVKGRFTISRDNAKNTVYLQMNSLKPEDTAVYYCAARNPRYSFYYWGQGTQVTVSS	high polyreactivity
QVQLVESGGGLVQAGGSLRLSCAASGIIFRNNAMGWYRQAPGKEREFVARISKRGGSTYYADSVKGRFTISRDNAKNTVYLQMNSLKPEDTAVYYCAKGYGSGSYLYDYWGQGTQVTVSS	high polyreactivity
QVQLVESGGGLVQAGGSLRLSCAASGIIFRNYAMGWYRQAPGKERELVATITGDGGSTYYADSVKGRFTISRDNAKNTVYLQMNSLKPEDTAVDYCAADRPYAGRYWKGYHSALYDYWGQGTQVTVSS	low polyreactivity
QVQLVESGGGLVQAGGSLRLSCAASGIIFRPYTMGWYRQAPGKERELVAAISQSGGRTYYADSVKGRFTISRDNAKNTVYLQMNSLKPEDTAVYYCNVLGSYSYYGGNDLWYYYWGQGTQVTVSS	high polyreactivity
QVQLVESGGGLVQAGGSLRLSCAASGIIFRRYAMGWSRQAPGKERELVAAITHRGSTYYADSVKGRFTISRDNAKNTVYLQMNSLKPEDTAVYYCAADGFTRWGRYDYWGQGTQVTVSS	high polyreactivity
QVQLVESGGGLVQAGGSLRLSCAASGIIFRRYAMGWYRQAPGKEREFVAAIRYTGGGTYYADSVKGRFTISRDNAKNTVYFQMNSLKPEDTAVYYCAASPWSRGSRWRPFDYWGQGTQVTVSS	high polyreactivity
QVQLVESGGGLVQAGGSLRLSCAASGIIFRSYAMGWYRQAPGKERELVAAITGGGTTNYADSVKGRFTISRDNAKNTVYLQMNSLKPEDTAVYYCNAGLDWFWFNEMDYWGQGTQVTGSS	low polyreactivity
QVQLVESGGGLVQAGGSLRLSCAASGIIFRTNAMGWYRQAPGKEREFVAAISAGGTRTYYADSVKGRFTISRDNAKNTVYLQMNSLKPEDTAVYYCAAASGYDYWGQGTQVTVSS	high polyreactivity
QVQLVESGGGLVQAGGSLRLSCAASGIIFRVYAMGWYRQAPGKERELVASITDRGTRTYYADSVKGRFTISRDNAKNTVYLQMNSLKPEDTAVYYCADEPNYLYWGFFSVGYDYWGQGTQVTVSS	high polyreactivity
QVQLVESGGGLVQAGGSLRLSCAASGIIFRVYAMGWYRQAPGKERELVATITWSGGSTFYADSVKGRFTISRDNAKNTVYLQMNSLKPEDTAVYYCAARFLWSVFGRKGGYWGQGTQVTVSS	low polyreactivity

Sequence	polyreactivity (PSR sort gate)
QVQLVESGGGLVQAGGSLRLSCAASGIIFRWYAMGWYRQAPGKERELVAAITRSGGSTYYADSVKGRFTISRDNAKNTVYLQMNSLKPEDTAVYYCAAEYYAPSYKFDYWGQGTQVTVSS	high polyreactivity
QVQLVESGGGLVQAGGSLRLSCAASGIIFRWYAMGWYRQAPGKERELVAGITSTTGTTYYADSVKGRFTISRDNAKNTVYLQMNSLKPEDTAVYYCAADYYCYTTAGVVDSFEYWGQGTQVTVSS	low polyreactivity
QVQLVESGGGLVQAGGSLRLSCAASGIIFRWYGMGWYRQAPGKERELVATITSGGRTNYADSVKGRFTISRDNAKNTGYLQMHSLKPEDTAVYYCAAARLFAMDYWGQGTQVTVSS	low polyreactivity
QVQLVESGGGLVQAGGSLRLSCAASGIIFRYNAMGLYRQAPGKERELVAAISWSGGYTYYADYVKGRFTISRDNAKNTVYFQMNSLKPEDTAVYYFNAVSLSRWGGYWGQGTQVTVSS	high polyreactivity
QVQLVESGGGLVQAGGSLRLSCAASGIIFRYYAMGWYIQAPGKERELVARITSGARTTYADSVKGRFTISRDNAKNTVYLQMNSLKPEDSAVYYCNAVRRYGLEYNYWGQGTQVTVSS	high polyreactivity
QVQLVESGGGLVQAGGSLRLSCAASGIIFRYYAMGWYRQAPGKEREFVADISASDGSTYYADSVKGRFTISRDNAKNTVYLQMNSQKPEDTAVSYCNARKYWKYGSYQYYWGQGTEVTVSS	high polyreactivity
QVQLVESGGGLVQAGGSLRLSCAASGIIFRYYAMGWYRQAPGKERELVAAISVSGGSTYDADSVKGRFTISRDNAKNTVYLQMNSLKPEDTAVYYCAARTRDFGYWGQGTQVTVSS	high polyreactivity
QVQLVESGGGLVQAGGSLRLSCAASGIIFRYYARVWYRQAPGKEREFVAAINYSGGSTYYADSVKGRFTISRDTAKYSVYLQMNSLKPEDTAVYYCAARSYTYTAPIYGYWGQGTQVTVSS	high polyreactivity
QVQLVESGGGLVQAGGSLRLSCAASGIIFSFYAMGWYRQAHGKERELVADITLSGGRTYYADSVKGRFTISRDNAKNTVYLQMNSLKPEDTAVYYCNADTYERGDYWGQGTQVTVSS	high polyreactivity
QVQLVESGGGLVQAGGSLRLSCAASGIIFSINAMGWYRQAPGKERELVAAISRSGGSTNYADSVKGRFTISRDNAKNTVYLQMNSLKPEDTAVYYCATVHRYSVWSHNYWGQGTQVTVSS	high polyreactivity
QVQLVESGGGLVQAGGSLRLSCAASGIIFSLYAMGWYRQAPGKERELVAAISASDGSTYYAVSVKGRFTISRDNAKNTVYLQMNSLKPEDTAVYYCAADSRPTQEYDYWGQGTQVTVSS	low polyreactivity
QVQLVESGGGLVQAGGSLRLSCAASGIIFSLYVMGWYRQAPGKERELVAAIRSGGSTYYADSVKGRFTISRDNAKNTVYLQMNSLKPEDTAGDYCAARVRSGTGVGFDYWGQGTQVTVSS	high polyreactivity
QVQLVESGGGLVQAGGSLRLSCAASGIIFSNYAMGWYRQAPGKERELVAAITRSGGRTYYADSVKGRFTISRDNAKNTVYLQMNSLKPEDTAVYYCAATGRSGVLSSYYYWGQGTQVTVSS	high polyreactivity
QVQLVESGGGLVQAGGSLRLSCAASGIIFSPNAMGWYRQAPGKEMELVAGISSGGSTYYADSVKGRFTISRDNAKNTVYFQMNSLKPEDTAVYYCNRGWAHSNAKFDYWGQGTQVTVSS	high polyreactivity
QVQLVESGGGLVQAGGSLRLSCAASGIIFSPNAMGWYRQAPGKERELVAGISSGGSTYYADSVKGRFTLSRDNAKNTVYLQMNSLKPEDTAVYYCAVRSRIFGSWYGYGYWGQGTQVTVSS	high polyreactivity
QVQLVESGGGLVQAGGSLRLSCAASGIIFSQYAMGWYRQAPGKERELVATITSRGASTYYADSVKGRFTISRDNAKNTVYLQMNSLKPEDTAVYYCAATVRRRYERYNYWGQGTQVTVSS	high polyreactivity
